Experimental data: US9416178B2, “Jagged-binding agents and uses thereof” (OncoMed Pharmaceuticals, Inc., priority 2009, dated 2016)
Positions count from the first letter of the chain named.

B1: 133R0201: 64R7 variant anti-Jagged antibody; heavy chain variable region SEQ ID NO:50, light chain variable region SEQ ID NO:21 (antibody, V domains shown)
VH: QVQLVESGGGVVQPGRSLRLSCAASGFTFSSYAMHWVRQAPGKGLEWVAAIYPDSSNKYYADSVKGRFTISRDNSKNTLYLQMNSLRAEDTAVYYCARDKYDIPDAFDIWGQGTLVTVS
VL: DIRMTQSPSSLSASVGDRVTITCRASQGISNDLAWYQQKPGKVPRLLIYATSTLQSGVPSRFSGSGSATDFTLTISSLQPEDVATYYCQQSYNAPITFGQGTRLEIK
modifications: 133R0201 Heavy chain variable region; 64R7 Light chain variable region
B2: 133R0203: 64R7 variant anti-Jagged antibody; heavy chain variable region SEQ ID NO:51, light chain variable region SEQ ID NO:21 (antibody, V domains shown)
VH: B1 VH with Y52S, D54E, S55A
VL: B1 VL
modifications: 133R0203 Heavy chain variable region; 64R7 Light chain variable region
B3: 133R0205: 64R7 variant anti-Jagged antibody; heavy chain variable region SEQ ID NO:52, light chain variable region SEQ ID NO:21 (antibody, V domains shown)
VH: B1 VH with D54A
VL: B1 VL
modifications: 133R0205 Heavy chain variable region; 64R7 Light chain variable region

How the values were obtained:
[1] = test system: PN17 pancreatic tumor cells; assay: PN17 pancreatic tumor xenograft model; format: in vivo, NOD/SCID mice; settings: antibody 15 mg/kg twice a week or gemcitabine 5 mg/kg once a week, intraperitoneally, FIG. 7
Procedure: PN17 pancreatic tumor cells were injected subcutaneously into the flanks of NOD/SCID mice. 10,000 cells were injected per animal. Mice were monitored weekly and tumors were allowed to grow until they were approximately 145 mm^3. The mice were randomized into four treatment groups (n=10 mice/group) and treated with either control antibody (LZ-1), anti-Jagged 64M51, gemcitabine or a combination of 64M51 and gemcitabine. Gemcitabine was administered intraperitoneally at a dose of 5 mg/kg once a week and antibodies were administered intraperitoneally at a dose of 15 mg/kg twice a week.

[2] = test system: human Jagged1-induced Notch2 activation; assay: Notch luciferase reporter assay, two cell population format; format: cell-based; settings: Example 14; PC3 cells; antibody 50 to 0.2 μg/ml; FIG. 12B
Excerpt: (§1) The ability of Jagged antibodies to inhibit Jagged-induced Notch signaling was also investigated using a two cell population assay format. One population of human PC3 cells was transfected with an expression vector encoding a full-length Notch2 receptor as well as plasmids encoding a Notch-dependent firefly luciferase reporter construct (8×CBF luciferase) and a Renilla luciferase reporter (Promega, Madison Wis.) as an internal transfection control. A second population of human PC3 cells was transfected with an expression vector encoding a full-length cDNA for either hJagged1 or hJagged2. Aliquots of the two cell populations were mixed together and incubated overnight in the presence of 64M51, 64R7 or 64R1B antibodies that were serially diluted 1:4 from 40 to 0.039 μg/ml, luciferase levels were measured 18 hours later using a dual luciferase assay kit (Promega, Madison, Wis.) with firefly luciferase activity normalized to Renilla luciferase activity. Shown is a titration of 64M51, 64R1B and 64R7 antibodies in this assay.
(§2) The ability of Jagged antibodies 133R0201, 133R0203, 133R0205, 133R0207, 133R0208, 133R0209 and 133R0210 to inhibit Jagged-induced Notch signaling was investigated using a two cell population assay format as described above in Example 6. One population of human PC3 cells was transfected with an expression vector encoding a full-length Notch2 receptor as well as plasmids encoding a Notch-dependent firefly luciferase reporter construct (8×CBF luciferase) and a Renilla luciferase reporter (Promega, Madison Wis.) as an internal transfection control. A second population of human PC3 cells was transfected with an expression vector encoding a full-length cDNA for either hJagged1 or hJagged2. Aliquots of the two cell populations were mixed together and incubated overnight in the presence of antibodies 64R7, 133R0201, 133R0203, 133R0205, 133R0207, 133R0208, 133R0209 and 133R0210 that were serially diluted 1:3 from 50 to 0.2 μg/ml. Luciferase levels were measured 18 hours later using a dual luciferase assay kit (Promega, Madison, Wis.) with firefly luciferase activity normalized to Renilla luciferase activity. Shown in FIGS. 12A and 12B are titrations of the antibodies in this assay.

[3] = test system: human Jagged2-induced Notch activation; assay: as above; format: cell-based; settings: Example 14; PC3 cells; antibody 50 to 0.2 μg/ml; FIG. 12A
Excerpt: as §1, §2

OMP-Lu45 cells = assay: Lu45 lung tumor xenograft model (Example 16); format: in vivo, NOD/SCID mice; settings: FIG. 14; for reduction of tumor growth, antibody in combination with taxol relative to taxol alone: antibody 15 mg/kg twice a week plus taxol 15 mg/kg once a week
Procedure: The anti-tumor activity of antibodies 64R7, 133R0201, 133R0203, 133R0205 and 133R206 was evaluated in the lung Lu45 tumor xenograft model. Dissociated OMP-Lu45 cells (50,000 per animal) were injected subcutaneously into 6-8 week old male NOD/SCID mice. Tumor growth was monitored weekly and tumor measurements were initiated once tumors were palpable. On day 41, mice with average tumor volumes of 132 mm^3 were randomized into 10 groups of 10 animals each. Animals were injected with control antibody, antibody 64R7, antibody 133R0201, antibody 133R0203, antibody 133R0205, antibody 133R0206 (all at 15 mg/kg), taxol (15 mg/kg), a combination of antibody 64R7 and taxol, a combination of antibody 133R0203 and taxol, or a combination of antibody 133R0205 and taxol. Administration of the antibodies and taxol was performed via injection into the intra-peritoneal cavity, once a week for taxol and twice a week for antibodies. Tumors were measured twice a week and tumor volume was determined using the formula ½(a×b^2); where a=length, and b=breadth. Data are expressed as mean and mean±S.E.M. Group means were compared using Student's two-tailed, unpaired t test.

OMP-Lu42 cells = assay: Lu42 lung tumor xenograft model; format: in vivo, NOD/SCID mice; settings: 15 mg/kg intraperitoneally twice a week, FIG. 13
Procedure: The anti-tumor activity of antibodies 64R7, 133R0203, and 133R0205 were evaluated in the lung Lu42 tumor xenograft model. Dissociated OMP-Lu42 cells (50,000 per animal) were injected subcutaneously into 6-8 week old male NOD/SCID mice. Tumor growth was monitored weekly and tumor measurements were initiated once tumors were palpable. On day 54, mice with average tumor volumes of 114 mm^3 were randomized into 4 groups of 10 animals each. Animals were injected with 15 mg/kg of either control antibody, antibody 64R7, antibody 133R0203, or antibody 133R0205. Administration of the antibodies was performed via injection into the intraperitoneal cavity, twice a week. Tumors were measured twice a week and tumor volume was determined using the formula ½(a×b^2); where a=length, and b=breadth. Data are expressed as mean and mean±S.E.M. Group means were compared using Student's two-tailed, unpaired t test.

| Molecule | tumor growth, single agent [1] | inhibition of human Jagged1-induced Notch activation, two cell population assay [2] | inhibition of human Jagged2-induced Notch activation, two cell population assay [3] | reduction in tumor growth, single agent compared to control antibody (OMP-Lu45 cells; 15 mg/kg twice a week) [%] | reduction in tumor growth, single agent compared to control antibody (OMP-Lu42 cells) [%] | reduction of tumor growth, antibody in combination with taxol relative to taxol alone (OMP-Lu45 cells) |
| --- | --- | --- | --- | --- | --- | --- |
| Nc1ccn([C@@H]2O[C@H](CO)[C@@H](O)C2(F)F)c(=O)n1 [gemcitabine, reference compound] | transient initial response |  |  |  |  |  |
| B1 |  | inhibitors | inhibitors | 24 |  |  |
| B2 |  | inhibitors | inhibitors |  | 28 | 36% |
| B3 |  | inhibitors | inhibitors |  | 33 | reduction of tumor growth |
